From the supplement of paper PMC9112550, “Optimization of the antimicrobial peptide Bac7 by deep mutational scanning” (BMC Biology, 2022)

Tested on: Escherichia coli TOP10
Test: shrunken log2 fold change of peptide-encoding DNA abundance (4.5 h post-induction vs induction); higher = less antimicrobial activity (less host growth inhibition)
Conditions: time post-induction: 4.5 h; library: site-saturation at positions 5, 18, 19, 20
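Note: peptides expressed intracellularly from a pBAD plasmid library in pooled LB shake-flask culture, induced with 0.3% L-arabinose, DNA abundance read by NGS, three biological replicates, DESeq2 with apeglm shrinkage.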

Row | Sequence | shrunken log2 fold change
1 | RRIRCRPPRLPRPRPRPKNMPRP | -0.727
2 | RRIRLRPPRLPRPRPRPLHGPRP | 0.0823
3 | RRIRSRPPRLPRPRPRPNTHPRP | -0.413
4 | RRIRQRPPRLPRPRPRPPAWPRP | 0.0654
5 | RRIRYRPPRLPRPRPRPGSIPRP | -0.606
6 | RRIRYRPPRLPRPRPRPNHSPRP | -0.498
7 | RRIRDRPPRLPRPRPRPDTIPRP | -0.0164
8 | RRIRHRPPRLPRPRPRPRTQPRP | 0.0696
9 | RRIRYRPPRLPRPRPRPQGSPRP | -0.19
10 | RRIRERPPRLPRPRPRPICMPRP | -0.309
11 | RRIRDRPPRLPRPRPRPQSFPRP | -0.0337
12 | RRIRARPPRLPRPRPRPQLRPRP | 0.157
13 | RRIRSRPPRLPRPRPRPCRSPRP | -0.0435
14 | RRIRSRPPRLPRPRPRPSCRPRP | -0.0379
15 | RRIRWRPPRLPRPRPRPTMDPRP | 0.156
16 | RRIRSRPPRLPRPRPRPTTAPRP | 0.155
17 | RRIRHRPPRLPRPRPRPSSQPRP | -0.152
18 | RRIRSRPPRLPRPRPRPRPRPRP | 0.815
19 | RRIRYRPPRLPRPRPRPIVMPRP | -0.254
20 | RRIRGRPPRLPRPRPRPICRPRP | -0.0289
21 | RRIRQRPPRLPRPRPRPNTFPRP | -0.666
22 | RRIRYRPPRLPRPRPRPTEGPRP | -0.96
23 | RRIRARPPRLPRPRPRPTQGPRP | 0.905
24 | RRIRARPPRLPRPRPRPRLWPRP | 0.724
25 | RRIRHRPPRLPRPRPRPQCVPRP | 0.00938

Row | Sequence | shrunken log2 fold change
26 | RRIRPRPPRLPRPRPRPCTAPRP | -0.109
27 | RRIRPRPPRLPRPRPRPLVQPRP | -0.0898
28 | RRIRWRPPRLPRPRPRPRSGPRP | 0.345
29 | RRIRWRPPRLPRPRPRPEAVPRP | 1.05
30 | RRIRFRPPRLPRPRPRPQHHPRP | -0.659
31 | RRIRQRPPRLPRPRPRPLKQPRP | -0.151
32 | RRIRIRPPRLPRPRPRPVMCPRP | 0.062
33 | RRIRRRPPRLPRPRPRPILGPRP | 0.0385
34 | RRIRMRPPRLPRPRPRPILYPRP | -0.0871
35 | RRIRGRPPRLPRPRPRPCAVPRP | 0.66
36 | RRIRLRPPRLPRPRPRPPMDPRP | 0.0462
37 | RRIRARPPRLPRPRPRPESLPRP | 0.938
38 | RRIRERPPRLPRPRPRPTICPRP | -0.342
39 | RRIRHRPPRLPRPRPRPMMPPRP | -0.365
40 | RRIRHRPPRLPRPRPRPQLVPRP | -0.0576
41 | RRIRHRPPRLPRPRPRPMWHPRP | -0.152
42 | RRIRYRPPRLPRPRPRPISLPRP | -0.333
43 | RRIRSRPPRLPRPRPRPLQRPRP | 0.0641
44 | RRIRERPPRLPRPRPRPKNFPRP | -0.311
45 | RRIRVRPPRLPRPRPRPHCVPRP | -0.315
46 | RRIRCRPPRLPRPRPRPYMGPRP | -0.017
47 | RRIRWRPPRLPRPRPRPISIPRP | -0.234
48 | RRIRYRPPRLPRPRPRPQMNPRP | -1.27
49 | RRIRARPPRLPRPRPRPFNHPRP | -0.436
50 | RRIRQRPPRLPRPRPRPEWEPRP | 0.00902
